From paper PMC10119233

Tests used:
[1] = target: N1_(10-14)Fc, Notch1 EGF-like repeats 10–14 fused to human IgG Fc (human) (UniProt P46531); experiment: mass photometry; purified Notch decoys; oligomeric state
[2] = target: N4_(10-14)Fc, Notch4 EGF-like repeats 10–14 fused to human IgG Fc (human) (UniProt Q99466); experiment: as above
[3] = target: Recombinant Fc-tagged hDLL4 (human) (UniProt Q9NR61); experiment: SPR; Biacore T200, CM5 chip; hDLL4-Fc or hJAG1-Fc on the chip (amine coupling by the results; captured after immobilising human IgG Fc by the methods), up to 20,000 RU; N1_(10-14)Fc or N4_(10-14)Fc as analyte, multi-cycle kinetics; HBS-N (10 mM HEPES, 150 mM NaCl), 0.005% Tween 20, 1 mM CaCl2, 2 mM MgCl2, pH 7.4; 25 °C, 25 μl/min; KD = kd/ka
Sequence of Recombinant Fc-tagged hDLL4 (human) (Q9NR61 27-529): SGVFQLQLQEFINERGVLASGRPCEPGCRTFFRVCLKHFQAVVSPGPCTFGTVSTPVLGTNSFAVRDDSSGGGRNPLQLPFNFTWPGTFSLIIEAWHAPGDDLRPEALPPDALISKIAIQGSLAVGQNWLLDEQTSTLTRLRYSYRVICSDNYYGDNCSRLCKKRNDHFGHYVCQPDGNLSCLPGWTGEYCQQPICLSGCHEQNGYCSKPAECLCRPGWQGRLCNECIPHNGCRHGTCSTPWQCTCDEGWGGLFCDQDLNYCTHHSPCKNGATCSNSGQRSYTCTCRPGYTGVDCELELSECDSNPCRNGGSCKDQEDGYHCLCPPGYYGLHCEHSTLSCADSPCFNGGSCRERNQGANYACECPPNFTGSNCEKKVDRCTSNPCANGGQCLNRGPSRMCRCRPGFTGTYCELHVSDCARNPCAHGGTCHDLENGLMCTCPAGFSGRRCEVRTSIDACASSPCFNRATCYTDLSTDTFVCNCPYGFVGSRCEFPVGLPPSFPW

Row | stoichiometry N [1] | stoichiometry N [2] | Kd [3] [nM] | Substance
1 | 2 | – | – | N1_(10-14)Fc, Notch1 EGF-like repeats 10–14 fused to human IgG Fc (from UniProt P46531 19-2555) (Fc fusion)
2 | – | 2 | 963 | N4_(10-14)Fc, Notch4 EGF-like repeats 10–14 fused to human IgG Fc (from UniProt Q99466 24-2003) (Fc fusion)
